Drawing on patent US20260217814 (published 2026), this text covers Kd for two molecules.

A word on the Kd: it is the concentration at which binding is half-saturated. A high value points to lower affinity.

The target of test [1] is T1, cynomolgus serum albumin (cynomolgus).
T1 chain: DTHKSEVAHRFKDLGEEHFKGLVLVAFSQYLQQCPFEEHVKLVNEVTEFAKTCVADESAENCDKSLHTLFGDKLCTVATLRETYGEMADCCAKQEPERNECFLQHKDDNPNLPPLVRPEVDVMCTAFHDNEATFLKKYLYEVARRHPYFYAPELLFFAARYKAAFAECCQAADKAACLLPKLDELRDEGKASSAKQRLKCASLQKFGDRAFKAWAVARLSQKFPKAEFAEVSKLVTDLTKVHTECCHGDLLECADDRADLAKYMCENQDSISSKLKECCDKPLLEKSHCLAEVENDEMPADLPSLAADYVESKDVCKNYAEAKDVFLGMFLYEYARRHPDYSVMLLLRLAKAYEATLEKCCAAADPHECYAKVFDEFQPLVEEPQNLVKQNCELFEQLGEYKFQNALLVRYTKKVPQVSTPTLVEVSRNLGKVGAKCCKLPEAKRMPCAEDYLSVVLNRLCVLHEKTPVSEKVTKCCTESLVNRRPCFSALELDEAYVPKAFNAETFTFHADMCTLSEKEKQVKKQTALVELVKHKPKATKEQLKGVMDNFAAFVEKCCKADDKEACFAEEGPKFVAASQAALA
Put plainly: SPR, pH 5.5. On the technique in general: SPR reads the build-up and loss of mass on a sensor chip optically.

Test [2] has as its target T2, human serum albumin (human, UniProt P02768). Put plainly: SPR, pH 5.5.
For test [3], the target named is T1, cynomolgus serum albumin. Put plainly: SPR, pH 7.4.
In test [4] the target is T2, human serum albumin. Put plainly: SPR, pH 7.4.
Another test addresses T3, human IL-17A (human).
T3 chain: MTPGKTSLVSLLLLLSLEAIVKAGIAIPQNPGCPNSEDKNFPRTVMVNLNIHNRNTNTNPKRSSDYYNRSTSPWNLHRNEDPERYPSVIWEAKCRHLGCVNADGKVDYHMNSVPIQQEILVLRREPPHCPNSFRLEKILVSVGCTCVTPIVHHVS
Put plainly: SPR.

The next test deals with T4, cynomolgus IL-17A (cynomolgus).
T4 chain: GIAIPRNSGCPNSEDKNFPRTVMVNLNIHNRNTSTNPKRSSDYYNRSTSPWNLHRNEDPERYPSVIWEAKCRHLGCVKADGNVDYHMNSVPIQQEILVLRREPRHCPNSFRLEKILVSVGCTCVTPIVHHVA
Put plainly: SPR.

B1: A5 HSA arm (antibody)
chain 1: EVQLVESGGGLVQPGGSLRLSCAASGIDFSTYGISWVRQAPGKGLEWIAYIYPDYGITDYASWVNGRFTISLDNAQNTVYLQMNSLRAEDTAVYYCARSGSYYSRGWGAHYFNLWGQGTLVTVSSASTKGPSVFPLAPSSKSTSGGTAALGCLVKDYFPEPVTVSWNSGALTSGVHTFPAVLQSSGLYSLSSVVTVPSSSLGTQTYICNVNHKPSNTKVDKKVEPKSCGGGGSGGGGSDIQMTQSPSSLSASVGDRVTITCQASQTINYWLAWYQQKPGKAPKLLIYRASTLASGVPSRFSGSGSGTDFTLTISSLQPEDFATYYCQNYYYSTSRSYGFGGGTKLTVLGGGGGSGGGGSGGGGSGGGGSEVQLVESGGGLVQPGGSLRLSCAASGFSFSSDYWMCWVRQAPGKGLEWIGCIYAGDVDDTDYASWARGRFTISRDNSKNTVYLQMNSLRAEDTAVYYCARVDGFDITYFDLWGQGTLVTVSS
chain 2: DIQMTQSPSSLSASVGDRVTINCQASESISSWLAWYQQKPGKRPKLLIYKASTLASGVPSRFSGSGSGTDYTLTISSLQPEDFATYYCQGYYLDSSVDDNVFGGGTKLTVLGRTRTVAAPSVFIFPPSDEQLKSGTASVVCLLNNFYPREAKVQWKVDNALQSGNSQESVTEQDSKDSTYSLSSTLTLSKADYEKHKVYACEVTHQGLSSPVTKSFNRGECGGGGSGGGGSDIQMTQSPSSLSASVGDRVTITCQSSESVYSNNQLSWYQQKPGQPPKLLIYDASDLASGVPSRFSGSGSGTDFTLTISSLQPEDFATYYCAGGFSSSSDTAFGGGTKLTVLGGGGGSGGGGSGGGGSGGGGSEVQLVESGGGLVQPGGSLRLSCAASGFSLSSNAMGWVRQAPGKGLEYIGIISVGGFTYYASWAKGRFTISRDNSKNTVYLQMNSLRAEDTATYFCARDRHGGDSSGAFYLWGQGTLVTVSS
On to B1, for which the Kd with cynomolgus serum albumin [1] stood at 0.795 nM; with human serum albumin [2] it was 1.66 nM; with cynomolgus serum albumin [3], 2.47 nM; in the test with human serum albumin [4], 2.69 nM.

B2: A5 IL-17A arm (antibody)
chain 1: EVQLVESGGGLVQPGGSLRLSCAASGIDFSTYGISWVRQAPGKGLEWIAYIYPDYGITDYASWVNGRFTISLDNAQNTVYLQMNSLRAEDTAVYYCARSGSYYSRGWGAHYFNLWGQGTLVTVSSASTKGPSVFPLAPSSKSTSGGTAALGCLVKDYFPEPVTVSWNSGALTSGVHTFPAVLQSSGLYSLSSVVTVPSSSLGTQTYICNVNHKPSNTKVDKKVEPKSCGGGGSGGGGSDIQMTQSPSSLSASVGDRVTITCQASQTINYWLAWYQQKPGKAPKLLIYRASTLASGVPSRFSGSGSGTDFTLTISSLQPEDFATYYCQNYYYSTSRSYGFGGGTKLTVLGGGGGSGGGGSGGGGSGGGGSEVQLVESGGGLVQPGGSLRLSCAASGFSFSSDYWMCWVRQAPGKGLEWIGCIYAGDVDDTDYASWARGRFTISRDNSKNTVYLQMNSLRAEDTAVYYCARVDGFDITYFDLWGQGTLVTVSS
chain 2: DIQMTQSPSSLSASVGDRVTINCQASESISSWLAWYQQKPGKRPKLLIYKASTLASGVPSRFSGSGSGTDYTLTISSLQPEDFATYYCQGYYLDSSVDDNVFGGGTKLTVLGRTRTVAAPSVFIFPPSDEQLKSGTASVVCLLNNFYPREAKVQWKVDNALQSGNSQESVTEQDSKDSTYSLSSTLTLSKADYEKHKVYACEVTHQGLSSPVTKSFNRGECGGGGSGGGGSDIQMTQSPSSLSASVGDRVTITCQSSESVYSNNQLSWYQQKPGQPPKLLIYDASDLASGVPSRFSGSGSGTDFTLTISSLQPEDFATYYCAGGFSSSSDTAFGGGTKLTVLGGGGGSGGGGSGGGGSGGGGSEVQLVESGGGLVQPGGSLRLSCAASGFSLSSNAMGWVRQAPGKGLEYIGIISVGGFTYYASWAKGRFTISRDNSKNTVYLQMNSLRAEDTATYFCARDRHGGDSSGAFYLWGQGTLVTVSS
Take B2: the results for the equilibrium dissociation constant (Kd) with human IL-17A and in the test with cynomolgus IL-17A were 0.575 nM and 0.523 nM, respectively.
